Results reported in publication PMC8133803.

Target: SARS-CoV-2 spike S1+S2 ECD-His (SARS-CoV-2 (2019-nCoV), UniProt P0DTC2 16-1213)
Assay: SPR

CACCAATATTTACGTTCTACTCTCCAATA (ssDNA, 5' BiotinTEG) [apt-NS]
binding result: no binding
